Changes are numbered by the printed parent chain. Read-outs that look alike come from different tables or passages of the source. Each block holds one binder with its values, some of them ahead of it.
Assays:
human plasma kallikrein [1] = molecular target: T1, human plasma kallikrein (human, UniProt P03952 20-390; P03952 391-638); assay: Ki,app, inhibition of human pKal enzyme activity
T1 construct: two disulfide-linked chains; also called pKal; human pKal

human plasma kallikrein [2] = molecular target: T1, human plasma kallikrein; assay: cell-based or functional assay
human plasma kallikrein [3] = molecular target: T1, human plasma kallikrein; assay: Ki,app, inhibition of human pKal enzyme activity; remark: listed apart in the source
human plasma kallikrein [4] = molecular target: T1, human plasma kallikrein; assay: cell-based or functional assay; remark: listed apart in the source
[5] = molecular target: T2, human plasma kallikrein (full length, active) (human, UniProt P03952 20-390; P03952 391-638); assay: Ki,app: enzyme inhibition, fluorescent substrate, 2 h pre-incubation at 30 C, tight-binding fit
T2 construct: two disulfide linked polypeptides; also called Full length pKal; pKal
Method: Apparent Inhibition constants (K_{i,app} values) were measured by pre-incubating enzyme and inhibitor solutions prior to initiating the reactions with substrate. Enzyme and inhibitor were pre-incubated for 2 hours at 30° C. in a 96-well plate by adding 10 μL of a 10× enzyme solution and 10 μL of 10× inhibitor solutions to 70 μL of reaction buffer. Reactions were initiated by the addition of 10 μL of a 10× concentrated stock of substrate, and were monitored at 30° C. in a fluorescence plate reader with the excitation and emission wavelengths set at 360 nm/460 nm, respectively. Kinetic data were acquired by the increase in fluorescence, and initial rates for each condition were plotted against the total inhibitor concentration. The data was fit to the following equation for tight binding inhibitors: […]

human plasma kallikrein [6] = molecular target: T3, human plasma kallikrein (human, UniProt P03952 20-390; P03952 391-638); assay: Ki,app as an IgG, steady state enzyme kinetics, inhibition of human pKal
T3 construct: two disulfide linked chains; also called pKal; human pKal

T2 sequence (P03952 20-390, chain 1 of 2): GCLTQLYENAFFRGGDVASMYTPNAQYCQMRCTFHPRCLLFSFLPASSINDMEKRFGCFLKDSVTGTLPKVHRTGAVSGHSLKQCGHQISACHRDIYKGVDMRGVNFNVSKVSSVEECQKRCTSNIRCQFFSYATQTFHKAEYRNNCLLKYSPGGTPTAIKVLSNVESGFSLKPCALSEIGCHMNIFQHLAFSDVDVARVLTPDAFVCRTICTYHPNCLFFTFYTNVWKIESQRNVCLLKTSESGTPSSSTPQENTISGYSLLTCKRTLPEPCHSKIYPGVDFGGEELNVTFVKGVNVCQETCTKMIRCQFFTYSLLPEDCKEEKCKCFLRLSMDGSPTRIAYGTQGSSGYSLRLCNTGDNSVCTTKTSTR
T2 sequence (P03952 391-638, chain 2 of 2): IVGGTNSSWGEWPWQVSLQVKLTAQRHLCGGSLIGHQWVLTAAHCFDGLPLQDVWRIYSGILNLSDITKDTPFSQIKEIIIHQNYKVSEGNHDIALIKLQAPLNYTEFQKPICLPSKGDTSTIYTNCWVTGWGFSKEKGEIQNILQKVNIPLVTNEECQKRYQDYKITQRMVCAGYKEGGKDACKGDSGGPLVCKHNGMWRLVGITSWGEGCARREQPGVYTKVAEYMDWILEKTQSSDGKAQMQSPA

B1: M200-A10 (Fab, V domains shown)
VH: EVQLLESGGGLVQPGGSLRLSCAASGFTFSHYIMMWVRQAPGKGLEWVSGIYSSGGITVYADSVKGRFTISRDNSKNTLYLQMNSLRAEDTAVYYCAYRRTGVPRRDSFDIWGQGTMVTVSS
VL: DIQMTQSPSTLSASVGDRVTITCRASQSISSWLAWYQQKPGKAPNLLIYKASTLESGVPSRFSGSGSGTEFTLTISSLQPDDFATYYCQQYNTYWTFGQGTKVEIK
notes: Tested as Fab; printed HC runs into CH1
Ki (human plasma kallikrein [1]): 300 pM
% inhibition at 10 nM (human plasma kallikrein [2]): 94.3%

B2: M198-F09 (Fab, V domains shown)
VH: B1 VH with H31V, I33N, M35H, G50S, S53P, I57M, V59Y, V103I, S108A
VL: B1 VL
notes: as for B1
Ki (human plasma kallikrein [1]): 200 pM
% inhibition at 10 nM (human plasma kallikrein [2]): 96.9%

B3: M196-C06 (Fab, V domains shown)
VH: B1 VH with H31I, I33S, M35H, G50S, S53P, G55R, I57M, V59W, V103I, S108A
VL: B1 VL
notes: as for B1
Ki (human plasma kallikrein [1]): 100 pM
% inhibition at 10 nM (human plasma kallikrein [2]): 97.2%

B4: M196-D12 (Fab, V domains shown)
VH: B1 VH with H31R, I33S, M35R, G50V, S53P, I57Q, V59Y, V103I, S108A
VL: B1 VL
notes: as for B1
Ki (human plasma kallikrein [1]): 200 pM
% inhibition at 10 nM (human plasma kallikrein [2]): 94.1%

B6: M198-A06 (Fab, V domains shown)
VH: B1 VH with H31I, I33S, M35H, G50S, I57P, V59K, V103I, S108A
VL: B1 VL
notes: as for B1
Ki (human plasma kallikrein [1]): 400 pM
% inhibition at 10 nM (human plasma kallikrein [2]): 96.1%

B7: M201-A07 (Fab, V domains shown)
VH: B1 VH with S108E
VL: B1 VL
notes: as for B1
Ki (human plasma kallikrein [1]): 100 pM
% inhibition at 10 nM (human plasma kallikrein [2]): 95.7%

B9: M200-D03 (Fab, V domains shown)
VH: B1 VH with Y98W, T101I, I111M
VL: B1 VL
notes: as for B1
Ki (human plasma kallikrein [1]): 100 pM
% inhibition at 10 nM (human plasma kallikrein [2]): 95.9%

B13: M197-A09 (Fab, V domains shown)
VH: B1 VH with H31V, I33N, M35H, G50S, S53P, I57M, V59T, V103I, S108A
VL: B1 VL
notes: as for B1
Ki (human plasma kallikrein [1]): 600 pM
% inhibition at 10 nM (human plasma kallikrein [2]): 94.9%

B15: M199-A08 (Fab, V domains shown)
VH: B1 VH with T101I, S108E
VL: B1 VL
Ki (human plasma kallikrein [1]): 60 pM
% inhibition at 10 nM (human plasma kallikrein [2]): 96.4%

B16: M198-D12 (Fab, V domains shown)
VH: B1 VH with H31L, I33V, M35Y, G50Y, Y52V, S53P, I57P, V59A, V103I, S108A
VL: B1 VL
notes: as for B1
Ki (human plasma kallikrein [1]): 700 pM
% inhibition at 10 nM (human plasma kallikrein [2]): 63.5%

B20: X115-E09 (antibody, V domains shown)
VH: EVQLLESGGGLVQPGGSLRLSCAASGFTFSHYLMTWVRQAPGKGLEWVSYISPSGGHTIYADSVKGRFTISRDNSKNTLYLQMNSLRAEDTAVYYCARVAQGIAARSRTSSVDQWGQGTLVTVSS
VL: EIVLTQSPGTLSLSPGERATLSCRTSQFVNSNYLAWYQQKPGQAPRLLIYGASSRATGIPDRFSGSGSGTDFTLTISRLEPEDFAVYYCQQSSRTPWTFGQGTKVEIK
notes: only variable domains given; also called 559A-X115-E09; 559A-X0115-E09
Ki [5]: 340 pM

B21: X115-H06 (antibody, V domains shown)
VH: B20 VH with A104S, S111Y, V112F, Q114Y
VL: B20 VL
notes: only variable domains given; also called 559A-X115-H06; 559A-X0115-H06
Ki [5]: 350 pM

B26: X115-D05 (antibody, V domains shown)
VH: B20 VH with H31D, L33M, T35A, Y50S, S52V, I59H, Q101R, S111Y, V112F, Q114Y
VL: B20 VL
notes: only variable domains given; also called 559A-X115-D05; 559A-X0115-D05
Ki [5]: 250 pM

B29: X69-C09 (IgG) (antibody, V domains shown)
VH: EVQLLESGGGLVQPGGSLRLSCAASGFTFSAYSMIWVRQAPGKGLEWVSYIRPSGGRTTYADSVKGRFTISRDNSKNTLYLQMNSLRAEDTAVYYCARGGLLLWFRELKSNYFDYWGQGTLVTVSS
VL: DIQMTQSPSSLSAFVGDRVTITCRASQPIDNYLNWYHQKPGKAPKLLIYAASRLQSGVPSRLSGSGFGTDFTLTISSLQPEDFGNYYCQQSYTVPYTFGGGTKVEIR
notes: Full length human IgG1; printed HC runs into CH1; also called Parental
Ki (human plasma kallikrein [6]): 200 pM

B30: X67-C09 (IgG) (antibody, V domains shown)
VH: B29 VH with F105G
VL: B29 VL
notes: printed HC runs into CH1
Ki (human plasma kallikrein [6]): 8600 pM

B31: X67-E04 (IgG) (antibody, V domains shown)
VH: B29 VH with F105D
VL: B29 VL
notes: printed HC runs into CH1
Ki (human plasma kallikrein [6]): 1300 pM

B32: X67-F10 (IgG) (antibody, V domains shown)
VH: B29 VH with F105T
VL: B29 VL
notes: printed HC runs into CH1
Ki (human plasma kallikrein [6]): 1300 pM

B33: X67-F01 (IgG) (antibody, V domains shown)
VH: B29 VH with F105Q
VL: B29 VL
notes: printed HC runs into CH1
Ki (human plasma kallikrein [6]): 900 pM

B34: X67-B03 (IgG) (antibody, V domains shown)
VH: B29 VH with F105S
VL: B29 VL
notes: printed HC runs into CH1
Ki (human plasma kallikrein [6]): 2100 pM

B35: X67-C03 (IgG) (antibody, V domains shown)
VH: B29 VH with F105M
VL: B29 VL
notes: printed HC runs into CH1
Ki (human plasma kallikrein [6]): 700 pM

Results, then the binder that gave them:

Ki (human plasma kallikrein [1]): 100 pM
% inhibition at 10 nM (human plasma kallikrein [2]): 95.7%
B5: M202-H03 (Fab, V domains shown)
VH: B1 VH with Y98F, R106W, S108D
VL: B1 VL
notes: Tested as Fab; printed HC runs into CH1; Same CDRs as M202-C01, differs at the residue before HV-CDR3 (F for Y)

Ki (human plasma kallikrein [1]): 300 pM
% inhibition at 10 nM (human plasma kallikrein [2]): 93.1%
B8: M202-B03 (Fab, V domains shown)
VH: B1 VH with S108D
VL: B1 VL
notes: as for B1

Ki (human plasma kallikrein [1]): 300 pM
% inhibition at 10 nM (human plasma kallikrein [2]): 92.3%
B10: M202-C09 (Fab, V domains shown)
VH: B1 VH with T101I, S108D
VL: B1 VL
notes: as for B1

Ki (human plasma kallikrein [1]): 200 pM
% inhibition at 10 nM (human plasma kallikrein [2]): 97.5%
B11: M202-A12 (Fab, V domains shown)
VH: B1 VH with R99Q, D110N
VL: B1 VL
notes: as for B1

Ki (human plasma kallikrein [1]): 100 pM
% inhibition at 10 nM (human plasma kallikrein [2]): 96.3%
B12: M202-C01 (Fab, V domains shown)
VH: B1 VH with R106W, S108D
VL: B1 VL
notes: as for B1

Ki (human plasma kallikrein [1]): 400 pM
% inhibition at 10 nM (human plasma kallikrein [2]): 95%
B14: M202-D09 (Fab, V domains shown)
VH: B1 VH with T101I
VL: B1 VL
notes: as for B1

Ki (human plasma kallikrein [3]): 140 pM
% inhibition at 10 nM (human plasma kallikrein [4]): 96.2%
B17: M209-C11 (Fab, V domains shown)
VH: B20 VH with R98M, A100G, A104R, A105G, S111Y, V112F, D113A
VL: B20 VL with E1D, V3Q, L4M, K40T, S66T, S68Y, F84Y, A85G, V86T, K104R
notes: Tested as Fab; printed HC runs into CH1; amber q written Q

Ki (human plasma kallikrein [3]): 400 pM
% inhibition at 10 nM (human plasma kallikrein [4]): 92.8%
B18: M210-H07 (Fab, V domains shown)
VH: B20 VH with Q101R, S110R, S111Y, V112F
VL: B20 VL with E1D, V3Q, L4M, K40T, S66T, S68Y, F84Y, A85G, V86T, K104R
notes: as for B17

Ki (human plasma kallikrein [3]): 200 pM
% inhibition at 10 nM (human plasma kallikrein [4]): 90.9%
B19: M210-B02 (Fab, V domains shown)
VH: B20 VH with R98S, Q101R, S111Y, V112F, D113N
VL: B20 VL with E1D, V3Q, L4M, K40T, S66T, S68Y, F84Y, A85G, V86T, K104R
notes: as for B17

Ki (human plasma kallikrein [3]): 160 pM
% inhibition at 10 nM (human plasma kallikrein [4]): 95.6%
B22: M210-C12 (Fab, V domains shown)
VH: B20 VH
VL: B20 VL with E1D, V3Q, L4M, K40T, S66T, S68Y, F84Y, A85G, V86T, K104R
notes: as for B17

Ki (human plasma kallikrein [3]): 400 pM
% inhibition at 10 nM (human plasma kallikrein [4]): 91.2%
B23: M210-G10 (Fab, V domains shown)
VH: B20 VH with Q101R, S111Y, V112L, Q114F
VL: B20 VL with E1D, V3Q, L4M, K40T, S66T, S68Y, F84Y, A85G, V86T, K104R
notes: as for B1

Ki (human plasma kallikrein [3]): 300 pM
% inhibition at 10 nM (human plasma kallikrein [4]): 94.2%
B24: M210-G04 (Fab, V domains shown)
VH: B20 VH with Q101T, A104V, S110R, S111Y, V112F
VL: B20 VL with E1D, V3Q, L4M, K40T, S66T, S68Y, F84Y, A85G, V86T, K104R
notes: as for B17

Ki (human plasma kallikrein [3]): 90 pM
% inhibition at 10 nM (human plasma kallikrein [4]): 97.6%
B25: M209-F04 (Fab, V domains shown)
VH: B20 VH with Q101R, S111Y, V112L, G116S
VL: B20 VL with E1D, V3Q, L4M, K40T, S66T, S68Y, F84Y, A85G, V86T, K104R
notes: Tested as Fab; printed HC runs into CH1; amber q written Q; WSQGTL as printed

Ki (human plasma kallikrein [3]): 300 pM
% inhibition at 10 nM (human plasma kallikrein [4]): 92.4%
B27: M209-E02 (Fab, V domains shown)
VH: B20 VH with Q101R, S110I, S111L, V112L
VL: B20 VL with E1D, V3Q, L4M, K40T, S66T, S68Y, F84Y, A85G, V86T, K104R
notes: as for B17

Ki (human plasma kallikrein [3]): 200 pM
% inhibition at 10 nM (human plasma kallikrein [4]): 93.8%
B28: M210-H06 (Fab, V domains shown)
VH: B20 VH with Q101R, S110R, S111Y, V112F, Q114Y
VL: B20 VL with E1D, V3Q, L4M, K40T, S66T, S68Y, F84Y, A85G, V86T, K104R
notes: as for B1

Reference: US9266964
